Measurements published in article PMC3850785.

Legend:
Test in all cases: purified protein
Conditions in all cases: 5 mM GSH, 0.10 M Tris-HCl pH 7.7, 37 °C, 1 h
[1] = substrate: C1O[C@@H]1[C@@H]1CO1
[2] = substrate: C1O[C@@H]1[C@H]1CO1
[3] = substrate: C1O[C@H]1[C@H]1CO1

B1: rat GST 5-5 (Rattus norvegicus) (protein)
chain: VLELYLDLLSQPCRAIYIFAKKNNIPFQMHTVELRKGEHLSDAFAQVNPMKKVPAMKDGGFTLCESVAILLYLAHKYKVPDHWYPQDLQARARVDEYLAWQHTTLRRSCLRTLWHKVMFPVFLGEQIRPEMLAATLADLDVNVQVLEDQFLQDKDFLVGPHISLADVVAITELMHPVGGGCPVFEGRPRLAAWYRRVEAAVGKDLFLEAHEVILKVRDCPPADPVIKQKLMPRVLTMIQ
- Km [1]: 770 ± 20 µM
- kcat [1]: 0.0638 s⁻¹
- kcat/Km [1]: 83.3 M⁻¹ s⁻¹
- Km [2]: 830 ± 150 µM
- kcat [2]: 0.0308 s⁻¹
- kcat/Km [2]: 38.3 M⁻¹ s⁻¹
- Km [3]: 800 ± 60 µM
- kcat [3]: 0.0573 s⁻¹
- kcat/Km [3]: 71.7 M⁻¹ s⁻¹

B2: human GST P1-1 (Homo sapiens) (protein)
chain: PPYTVVYFPVRGRCAALRMLLADQGQSWKEEVVTVETWQEGSLKASCLYGQLPKFQDGDLTLYQSNTILRHLGRTLGLYGKDQQEAALVDMVNDGVEDLRCKYISLIYTNYEAGKDDYVKALPGQLKPFETLLSQNQGGKTFIVGDQISFADYNLLDLLLIHEVLAPGCLDAFPLLSAYVGRLSARPKLKAFLASPEYVNLPINGNGKQ
- Km [1]: 740 ± 330 µM
- kcat [1]: 0.044 s⁻¹
- kcat/Km [1]: 65 M⁻¹ s⁻¹
- Km [2]: 590 ± 150 µM
- kcat [2]: 0.0265 s⁻¹
- kcat/Km [2]: 46.7 M⁻¹ s⁻¹
- Km [3]: 910 ± 10 µM
- kcat [3]: 0.0442 s⁻¹
- kcat/Km [3]: 48.3 M⁻¹ s⁻¹

B3: human GST A1-1 (Homo sapiens) (protein)
chain: AEKPKLHYFNARGRMESTRWLLAAAGVEFEEKFIKSAEDLDKLRNDGYLMFQQVPMVEIDGMKLVQTRAILNYIASKYNLYGKDIKERALIDMYIEGIADLGEMILLLPVCPPEEKDAKLALIKEKIKNRYFPAFEKVLKSHGQDYLVGNKLSRADIHLVELLYYVEELDSSLISSFPLLKALKTRISNLPTVKKFLQPGSPRKPPMDEKSLEEARKIFRF
- Km [1]: 300 ± 50 µM
- kcat [1]: 0.0228 s⁻¹
- kcat/Km [1]: 78.3 M⁻¹ s⁻¹
- Km [2]: 540 ± 30 µM
- kcat [2]: 0.0342 s⁻¹
- kcat/Km [2]: 63.3 M⁻¹ s⁻¹
- Km [3]: 320 ± 10 µM
- kcat [3]: 0.0218 s⁻¹
- kcat/Km [3]: 68.3 M⁻¹ s⁻¹

B4: human GST A3-3 (Homo sapiens) (protein)
chain: AGKPKLHYFNGRGRMEPIRWLLAAAGVEFEEKFIGSAEDLGKLRNDGSLMFQQVPMVEIDGMKLVQTRAILNYIASKYNLYGKDIKERALIDMYTEGMADLNEMILLLPLCRPEEKDAKIALIKEKTKSRYFPAFEKVLQSHGQDYLVGNKLSRADISLVELLYYVEELDSSLISNFPLLKALKTRISNLPTVKKFLQPGSPRKPPADAKALEEARKIFRF
- Km [1]: 480 ± 330 µM
- kcat [1]: 0.0253 s⁻¹
- kcat/Km [1]: 66.7 M⁻¹ s⁻¹
- Km [2]: 750 ± 120 µM
- kcat [2]: 0.0302 s⁻¹
- kcat/Km [2]: 40 M⁻¹ s⁻¹
- Km [3]: 510 ± 80 µM
- kcat [3]: 0.028 s⁻¹
- kcat/Km [3]: 55 M⁻¹ s⁻¹

B5: human GST T1-1 (Homo sapiens) (protein)
chain: GLELYLDLLSQPCRAVYIFAKKNDIPFELRIVDLIKGQHLSDAFAQVNPLKKVPALKDGDFTLTESVAILLYLTRKYKVPDYWYPQDLQARARVDEYLAWQHTTLRRSCLRALWHKVMFPVFLGEPVSPQTLAATLAELDVTLQLLEDKFLQNKAFLTGPHISLADLVAITELMHPVGAGCQVFEGRPKLATWRQRVEAAVGEDLFQEAHEVILKAKDFPPADPTIKQKLMPWVLAMIR
- Km [1]: 790 ± 30 µM
- kcat [1]: 0.0618 s⁻¹
- kcat/Km [1]: 78.3 M⁻¹ s⁻¹
- Km [2]: 370 ± 10 µM
- kcat [2]: 0.0403 s⁻¹
- kcat/Km [2]: 108 M⁻¹ s⁻¹
- Km [3]: 930 ± 10 µM
- kcat [3]: 0.0617 s⁻¹
- kcat/Km [3]: 66.7 M⁻¹ s⁻¹

B6: human GST M1-1 (Homo sapiens) (protein)
chain: PMILGYWDIRGLAHAIRLLLEYTDSSYEEKKYTMGDAPDYDRSQWLNEKFKLGLDFPNLPYLIDGAHKITQSNAILCYIARKHNLCGETEEEKIRVDILENQTMDNHMQLGMICYNPEFEKLKPKYLEELPEKLKLYSEFLGKRPWFAGNKITFVDFLVYDVLDLHRIFEPKCLDAFPNLKDFISRFEGLEKISAYMKSSRFLPRPVFSKMAVWGNK
- Km [1]: 730 ± 60 µM
- Km [2]: 920 ± 330 µM
- kcat [2]: 0.0497 s⁻¹
- kcat/Km [2]: 56.7 M⁻¹ s⁻¹
- Km [3]: 810 ± 50 µM
- kcat [3]: 0.074 s⁻¹
- kcat/Km [3]: 91.7 M⁻¹ s⁻¹
